Measured values published in patent publication US20230088269A1.

Target: recombinant human IL-22R (R&D Systems / Biotechne 2770-LR) (human) (UniProt Q8N6P7)
Experiment: SPR (Biacore), purified Fab

Sequence of recombinant human IL-22R (R&D Systems / Biotechne 2770-LR) (human) (Q8N6P7 16-228 limits assumed): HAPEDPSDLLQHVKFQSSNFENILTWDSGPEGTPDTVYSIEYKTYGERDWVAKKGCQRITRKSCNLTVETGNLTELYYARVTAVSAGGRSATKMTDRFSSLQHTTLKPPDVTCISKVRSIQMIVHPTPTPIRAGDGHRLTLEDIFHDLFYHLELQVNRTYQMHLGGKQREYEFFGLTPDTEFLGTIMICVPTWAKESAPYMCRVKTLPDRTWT

koff: 0.00035 s⁻¹
B1: 170B2 Fab (Fab, from another filing, V domains shown)
VH: EVQLVESGGGLVQPGGSLRLSCAASGFTFSSSWMYWVRQAPGKGLEFVSVINTRSGITHYVESVKGRFTISTDNAKNTLFLQMNSLKSEDTAVYYCATRIQGLIDYWGQGTQVTVSS
VL: DIVMTQSPSSLSVSLGDRVTITCQASQSIGSVNALAWYQQKPGQSLKLLIHGASRLQTGVPSRFSGSGSGTSFTLAISGVEAEDLATYYCLQDYAWPLTFGQGTKVELK
